What was measured:
[1] = target: T1, human CD39 (human, UniProt P49961 1-510); assay: FACS, MOLP-8 cells
T1 construct: full length human CD39 (NP_001767.3) on transfected CHOK1 cells, or native on SK-MEL-5, SK-MEL-28 and MOLP-8 cells; also called hCD39; ENTPD1
T1 sequence: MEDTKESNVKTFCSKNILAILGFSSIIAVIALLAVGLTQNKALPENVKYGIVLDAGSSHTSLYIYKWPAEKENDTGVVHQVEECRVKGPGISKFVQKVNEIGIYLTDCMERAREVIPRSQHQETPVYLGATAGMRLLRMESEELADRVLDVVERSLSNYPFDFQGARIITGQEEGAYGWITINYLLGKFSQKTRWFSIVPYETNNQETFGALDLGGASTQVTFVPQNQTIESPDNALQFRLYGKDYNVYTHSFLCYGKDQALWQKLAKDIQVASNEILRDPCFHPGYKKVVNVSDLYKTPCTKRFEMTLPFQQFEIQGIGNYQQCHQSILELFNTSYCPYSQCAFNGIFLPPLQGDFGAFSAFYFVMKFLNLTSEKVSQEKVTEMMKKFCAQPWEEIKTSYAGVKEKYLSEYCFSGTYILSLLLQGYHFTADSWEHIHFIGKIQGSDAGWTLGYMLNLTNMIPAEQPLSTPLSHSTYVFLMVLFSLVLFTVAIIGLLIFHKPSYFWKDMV

[2] = target: T1, human CD39; assay: cell-based or functional assay
[3] = target: T1, human CD39; assay: cell-based or functional assay; remark: listed apart in the source
[4] = target: T1, human CD39; assay: FACS, SK-MEL-28 cells
[5] = target: T1, human CD39; assay: FACS, SK-MEL-5 cells
[6] = target: T1, human CD39; assay: FACS, MOLP-8 cells; remark: listed apart in the source
[7] = target: T2, cynomolgus CD39 (cynomolgus monkey, UniProt A0A7N9DGH8 1-510); assay: FACS, CHO-K1/cynoCD39 cells
T2 construct: whole, on cells; also called cyno CD39; CHOK1-cynoCD39
T2 sequence: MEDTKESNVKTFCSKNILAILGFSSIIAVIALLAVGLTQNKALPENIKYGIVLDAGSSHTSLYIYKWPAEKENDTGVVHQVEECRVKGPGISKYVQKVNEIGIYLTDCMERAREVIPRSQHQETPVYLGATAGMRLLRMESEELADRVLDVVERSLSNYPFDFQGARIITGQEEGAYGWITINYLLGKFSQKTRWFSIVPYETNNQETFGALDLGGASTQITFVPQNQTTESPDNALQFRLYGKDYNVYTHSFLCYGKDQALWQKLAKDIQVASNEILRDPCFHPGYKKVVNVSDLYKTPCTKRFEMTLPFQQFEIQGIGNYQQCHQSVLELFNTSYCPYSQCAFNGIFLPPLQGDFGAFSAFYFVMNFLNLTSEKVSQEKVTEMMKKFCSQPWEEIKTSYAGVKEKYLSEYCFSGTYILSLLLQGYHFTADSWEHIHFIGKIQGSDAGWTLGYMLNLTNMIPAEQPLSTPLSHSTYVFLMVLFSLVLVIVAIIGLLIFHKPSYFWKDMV

[8] = target: T3, 6×His tagged human CD39 (human); assay: Biacore, antibody captured, 6×His human CD39 as analyte, 1:1 model
T3 chain: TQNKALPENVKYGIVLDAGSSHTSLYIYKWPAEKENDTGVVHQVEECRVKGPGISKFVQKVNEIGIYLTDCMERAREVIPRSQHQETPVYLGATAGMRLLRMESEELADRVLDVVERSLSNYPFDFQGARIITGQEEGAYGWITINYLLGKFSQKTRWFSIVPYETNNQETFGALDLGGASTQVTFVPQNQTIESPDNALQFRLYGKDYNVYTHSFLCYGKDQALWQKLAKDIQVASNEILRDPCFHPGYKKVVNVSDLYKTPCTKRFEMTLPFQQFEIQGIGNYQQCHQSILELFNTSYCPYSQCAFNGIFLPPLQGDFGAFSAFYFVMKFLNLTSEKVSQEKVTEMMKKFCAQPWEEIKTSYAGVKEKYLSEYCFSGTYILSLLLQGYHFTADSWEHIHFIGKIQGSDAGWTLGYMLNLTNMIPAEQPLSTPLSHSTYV
Experimental: In particular, humanized antibodies hu23.H5L5, hu23.201, hu14.H1L1 and reference antibodies I394 and T895 were characterized for binding affinity against human CD39 using Biacore (GE). Briefly the antibodies to be tested were captured to […] (GE) using Human Antibody Capture Kit (GE). The antigen of 6×His tagged human CD39 was serially diluted for multiple doses and injected at 30 μl/min for 180 s. Buffer flow was maintained for dissociation of 400 s. 3 M MgCl₂ was used for chip regeneration. The association and dissociation curves were fit with 1:1 binding model, and the Ka/Kd/KD values for each antibody were calculated.

[9] = target: T1, human CD39; assay: FACS, MOLP-8 cells, second set
[10] = target: T4, mouse CD39 (mouse, UniProt P55772 1-510); assay: FACS, CHOK1-mCD39 cells
T4 construct: whole, on cells; also called mCD39; CHOK1-mCD39
T4 sequence (looked up): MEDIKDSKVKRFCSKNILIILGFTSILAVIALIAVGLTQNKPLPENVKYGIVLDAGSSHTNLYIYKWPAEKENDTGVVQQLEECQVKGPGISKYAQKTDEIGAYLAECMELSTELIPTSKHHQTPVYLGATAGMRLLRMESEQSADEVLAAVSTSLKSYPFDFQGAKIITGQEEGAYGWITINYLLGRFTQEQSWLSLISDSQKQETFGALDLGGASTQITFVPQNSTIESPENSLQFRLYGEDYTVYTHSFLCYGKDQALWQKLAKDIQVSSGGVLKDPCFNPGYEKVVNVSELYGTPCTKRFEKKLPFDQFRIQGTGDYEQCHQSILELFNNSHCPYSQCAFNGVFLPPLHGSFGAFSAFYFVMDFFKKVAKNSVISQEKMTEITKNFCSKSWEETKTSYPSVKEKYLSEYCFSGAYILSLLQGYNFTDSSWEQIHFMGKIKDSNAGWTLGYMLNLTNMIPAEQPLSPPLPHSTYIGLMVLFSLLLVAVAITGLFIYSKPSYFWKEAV
Source text: FACS were used to determine binding of the antibodies to cell lines expressing CD39 naturally (SK-MEL-28) or recombinantly (CHOK1-hCD39, CHOK1-cynoCD39, and CHOK1-mCD39), or with cells lacking CD39 expression (CHOK1-blank) as a negative control.
CHOK1-hCD39, CHOK1-cCD39, CHOK1-mCD39 and CHOK1-blank cells were maintained in culture medium according to ATCC procedure. Cells were collected and re-suspended in blocking buffer at a density of 3×10⁶ cells/ml. […] The plates were washed with FACS buffer, and cells were re-suspended in 100 μL/well of PBS. Cells were then analyzed with FACSVerse™ and mean fluorescence intensity were determined. Full binding curves were generated on the CD39 expressing cells by testing a range of antibody concentrations. Apparent affinity was determined for each antibody using Prism software.

B1: hu23.H3L1 (antibody, V domains shown)
VH: QVQLVQSGAEVKKPGASVKLSCKASGYNLKDTFLHWVRQAPGQGLEWIGRIDPANGNIKYDPKFQGRATITADTSASTAYMELSSLRSEDTAVYYCANSPYYYGSGYRIFDVWGQGTTVTVSS
VL: EIVLTQSPATLSLSPGERATLSCSAFSSVNYMHWYQQKPGQAPRLLIYTTSNLASGIPARFSGSGSGTDFTLTISSLEPEDFAVYYCQQRSTYPFTFGQGTKLEIK
- EC50 [1]: ~15.4 nM

B2: hu23.H5L5 (antibody, V domains shown)
VH: QVQLVQSGAEVKKPGASVKVSCKASGYNLKDTFLHWVRQAPGQGLEWMGRIDPANGNIKYDPKFQGRVTITADTSANTAYMELISLRSEDTAVYYCANSPYYYGSGYRIFDVWGQGTTVTVSS
VL: QIVLTQSPATLSLSPGERATLSCSAFSSVNYMHWYQQKPGQAPRLLIYTTSNLASGIPTRFSGSGSGTSYTLTISSLEPEDFAVYYCQQRSTYPFTFGQGTKLEIK
- ATPase activity inhibition (IC50), MOLP-8 cells [2]: 0.33 nM
- ATPase activity inhibition (IC50), SK-MEL-5 cells [2]: 0.07 nM
- ATPase inhibition on SK-MEL-28 cells, IC50 [3]: 0.122 nM

B3: T895 (antibody, V domains shown)
VH: EVQLQQSGPELVKPGASVKMSCKASGYTFTDYNMHWVKQSHGRTLEWIGYIVPLNGGSTFNQKFKGRATLTVNTSSRTAYMELRSLTSEDSAAYYCARGGTRFAYWGQGTLVTVSA
VL: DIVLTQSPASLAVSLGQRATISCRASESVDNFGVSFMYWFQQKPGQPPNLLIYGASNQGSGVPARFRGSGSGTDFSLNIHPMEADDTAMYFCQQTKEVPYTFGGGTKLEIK
- ATPase activity inhibition (IC50), MOLP-8 cells [2]: 0.51 nM
- ATPase activity inhibition (IC50), SK-MEL-5 cells [2]: 0.09 nM

B4: I394 (antibody, V domains shown)
VH: QVQLVQSGAEVKKPGASVKVSCKASGYTFKSYEMHWVRQAPGQGLEWMGRINPSVGSTWYAQKFQGRVTMTRDTSTSTVYMELSSLRSEDTAVYYCARGKREGGTEYLRKWGQGTLVTVSS
VL: EIVLTQSPGTLSLSPGERATLSCRASQSVASSYLAWYQQKPGQAPRLLIYGASNRHTGIPDRFSGSGSGTDFTLTISRLEPEDFAVYYCQQYHNAITFGGGTKVEIK
- EC50 [4]: 0.94 nM
- ATPase activity inhibition (IC50), MOLP-8 cells [2]: 0.21 nM
- ATPase activity inhibition (IC50), SK-MEL-5 cells [2]: 0.1 nM
- EC50 [5]: 0.49 nM
- EC50 [6]: 0.11 nM
- EC50 [7]: 2.71 nM

B5: hu14.H1L1 (antibody, V domains shown)
VH: EVQLVESGGGLVKPGGSLRLSCAASGFTFSKYWMNWVRQAPGKGLEWVGEIRLKSNKYGTHYAESVKGRFTISRDDSKNTLYLQMNSLKTEDTAVYYCTTQLDLYWFFDVWGQGTTVTVSS
VL: EIVLTQSPATLSLSPGERATLSCRASQSISDYLHWYQQKPGQAPRLLIYYASQSISGIPARFSGSGSGTDFTLTISSLEPEDFAVYYCQNGHSLPLTFGGGTKLEIK
- Kd [8]: 5.03 nM
- koff [8]: 0.00455 s⁻¹
- kon [8]: 903000 M⁻¹ s⁻¹

B6: hu23.H1L1 (antibody, V domains shown)
VH: QVQLVQSGAEVKKPGASVKVSCKASGYNLKDTFLHWVRQAPGQRLEWMGRIDPANGNIKYDPKFQGRVTITRDTSASTAYMELSSLRSEDTAVYYCARSPYYYGSGYRIFDVWGQGTTVTVSS
VL: EIVLTQSPATLSLSPGERATLSCSAFSSVNYMHWYQQKPGQAPRLLIYTTSNLASGIPARFSGSGSGTDFTLTISSLEPEDFAVYYCQQRSTYPFTFGQGTKLEIK
- EC50 [9]: ~78.2 nM

B7: mAb34 (antibody, V domains shown)
VH: EIQVQQSGPELVKPGASVKVSCKASGYSFTDYNMYWVKQSHGKSLEWIGFIDPYNGYTSYNQKFKGKATLTIDKSSSTAFMHLNSLTSEDSAVYYCAIYGYDDAYYFDYWGQGTTLTVSS
VL: QIVLTQSPAIMSASPGEKVTITCSATSSVSYMHWFRQKPGTSPKLWIYSTSNLASGVPARFSGSGSGTSYSLTISRMAAEDAATYYCQQRITYPFTFGSGTKLEIT
notes: mouse hybridoma antibody
- binding result [10]: no binding (tested: 30 µg/ml)

B8: mAb35 (antibody, V domains shown)
VH: EVRLQQSGAELVKPGASVKLSCTASGFNIEDTYVHWMKQRPEQGLEWIGRIDPAIDNSKYDPKFQGKATITAVSSSNTAYLQLSSLTSEDTAVYYCALYDGYNVYAMDYWGQGTSVTVSS
VL: DIVMTQAAFSNPVTLGTSASISCRSSKNLLHSNGITYLYWYLQRPGQSPQLLIYRASTLASGVPNRFSGSESGTDFTLRISRVEAEDVGVYYCAQLLELPHTFGGGTKLEIK
notes: mouse hybridoma antibody
- binding result [10]: no binding (tested: 30 µg/ml)

— patent US20230416394A1 (ELPISCIENCE SUZHOU BIOPHARMA, published 2023)
